# Experimental data from IntAct's records for PubMed 35512704.
# B1: Mothers against decapentaplegic homolog 4 (Homo sapiens), Q13485 (parent)
# chain: MDNMSITNTPTSNDACLSIVHSLMCHRQGGESETFAKRAIESLVKKLKEKKDELDSLITAITTNGAHPSKCVTIQRTLDGRLQVAGRKGFPHVIYARLWRWPDLHKNELKHVKYCQYAFDLKCDSVCVNPYHYERVVSPGIDLSGLTLQSNAPSSMMVKDEYVHDFEGQPSLSTEGHSIQTIQHPPSNRASTETYSTPALLAPSESNATSTANFPNIPVASTSQPASILGGSHSEGLLQIASGPQPGQQQNGFTGQPATYHHNSTTTWTGSRTAPYTPNLPHHQNGHLQHHPPMPPHPGHYWPVHNELAFQPPISNHPAPEYWCSIAYFEMDVQVGETFKVPSSCPIVTVDGYVDPSGGDRFCLGQLSNVHRTEAIERARLHIGKGVQLECKGEGDVWVRCLSDHAVFVQSYYLDREAGRAPGDAVHKIYPSAYIKVFDLRQCHRQMQQQAATAQAAAAAQAAAVAGNIPGPGSVGGIAPAISLSAAAGIGVDDLRRLCILRMSFVKGWGPDYPRQSIKETPCWIEIHLHRALQLLDEVLHTMPIADPQPLD
# partner: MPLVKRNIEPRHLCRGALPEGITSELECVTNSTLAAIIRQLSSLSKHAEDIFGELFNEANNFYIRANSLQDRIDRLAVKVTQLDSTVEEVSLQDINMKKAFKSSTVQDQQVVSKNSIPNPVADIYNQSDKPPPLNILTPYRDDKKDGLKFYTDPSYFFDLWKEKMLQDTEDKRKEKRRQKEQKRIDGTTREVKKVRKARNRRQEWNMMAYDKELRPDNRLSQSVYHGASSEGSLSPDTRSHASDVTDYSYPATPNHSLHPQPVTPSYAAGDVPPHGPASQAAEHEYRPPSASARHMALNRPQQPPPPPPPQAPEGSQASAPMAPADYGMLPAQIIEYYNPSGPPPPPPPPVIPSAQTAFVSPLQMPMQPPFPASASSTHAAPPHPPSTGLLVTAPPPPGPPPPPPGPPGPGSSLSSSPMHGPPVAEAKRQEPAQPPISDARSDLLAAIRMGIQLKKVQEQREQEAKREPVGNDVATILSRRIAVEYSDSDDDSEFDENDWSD
# B2: Mothers against decapentaplegic homolog 4 (Homo sapiens), Q13485 (parent)
# chain: B1 chain
# partner: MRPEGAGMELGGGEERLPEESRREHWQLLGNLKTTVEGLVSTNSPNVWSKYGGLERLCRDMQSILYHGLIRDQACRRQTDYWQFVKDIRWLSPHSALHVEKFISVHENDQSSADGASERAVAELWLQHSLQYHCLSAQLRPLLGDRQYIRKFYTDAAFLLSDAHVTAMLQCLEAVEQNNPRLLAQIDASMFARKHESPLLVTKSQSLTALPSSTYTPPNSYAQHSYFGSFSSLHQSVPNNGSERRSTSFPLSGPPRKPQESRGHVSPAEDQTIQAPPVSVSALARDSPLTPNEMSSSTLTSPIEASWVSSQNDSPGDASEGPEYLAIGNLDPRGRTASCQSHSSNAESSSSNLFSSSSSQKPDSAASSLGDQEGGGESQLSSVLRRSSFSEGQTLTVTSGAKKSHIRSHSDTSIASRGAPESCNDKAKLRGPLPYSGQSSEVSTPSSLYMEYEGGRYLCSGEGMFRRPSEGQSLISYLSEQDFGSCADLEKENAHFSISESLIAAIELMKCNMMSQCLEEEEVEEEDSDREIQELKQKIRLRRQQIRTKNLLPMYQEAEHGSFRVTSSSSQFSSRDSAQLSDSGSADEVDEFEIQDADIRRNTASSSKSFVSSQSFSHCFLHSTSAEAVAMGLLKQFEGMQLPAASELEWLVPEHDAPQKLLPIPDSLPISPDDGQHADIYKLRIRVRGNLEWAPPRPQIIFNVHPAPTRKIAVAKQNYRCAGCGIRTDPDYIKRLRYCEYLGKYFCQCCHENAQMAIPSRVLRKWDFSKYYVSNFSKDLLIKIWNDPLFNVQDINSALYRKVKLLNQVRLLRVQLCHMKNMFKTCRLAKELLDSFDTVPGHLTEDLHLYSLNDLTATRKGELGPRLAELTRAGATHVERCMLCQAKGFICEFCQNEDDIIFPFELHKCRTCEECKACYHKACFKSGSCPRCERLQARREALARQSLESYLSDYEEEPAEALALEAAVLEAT
# B3: Mothers against decapentaplegic homolog 4 (Homo sapiens), Q13485 (parent)
# chain: B1 chain
# partner: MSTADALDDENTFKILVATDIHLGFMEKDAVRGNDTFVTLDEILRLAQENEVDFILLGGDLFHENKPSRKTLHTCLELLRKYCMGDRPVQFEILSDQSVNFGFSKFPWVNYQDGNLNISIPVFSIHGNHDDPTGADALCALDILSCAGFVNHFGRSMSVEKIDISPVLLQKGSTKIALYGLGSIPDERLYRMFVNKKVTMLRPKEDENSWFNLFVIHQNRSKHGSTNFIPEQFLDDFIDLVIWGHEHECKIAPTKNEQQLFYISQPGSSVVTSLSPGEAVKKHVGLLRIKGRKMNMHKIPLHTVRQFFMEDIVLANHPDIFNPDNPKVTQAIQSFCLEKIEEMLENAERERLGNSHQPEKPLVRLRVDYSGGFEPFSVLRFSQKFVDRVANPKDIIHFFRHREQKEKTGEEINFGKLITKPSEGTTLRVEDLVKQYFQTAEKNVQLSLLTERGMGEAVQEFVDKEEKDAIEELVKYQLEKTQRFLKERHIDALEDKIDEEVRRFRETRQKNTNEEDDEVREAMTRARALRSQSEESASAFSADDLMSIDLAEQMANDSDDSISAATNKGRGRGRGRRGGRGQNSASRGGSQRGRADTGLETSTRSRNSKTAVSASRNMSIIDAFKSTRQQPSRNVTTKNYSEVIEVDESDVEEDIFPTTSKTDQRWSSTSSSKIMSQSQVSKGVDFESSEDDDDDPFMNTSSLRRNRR
# B4: Mothers against decapentaplegic homolog 4 (Homo sapiens), Q13485 (parent)
# chain: B1 chain
# partner: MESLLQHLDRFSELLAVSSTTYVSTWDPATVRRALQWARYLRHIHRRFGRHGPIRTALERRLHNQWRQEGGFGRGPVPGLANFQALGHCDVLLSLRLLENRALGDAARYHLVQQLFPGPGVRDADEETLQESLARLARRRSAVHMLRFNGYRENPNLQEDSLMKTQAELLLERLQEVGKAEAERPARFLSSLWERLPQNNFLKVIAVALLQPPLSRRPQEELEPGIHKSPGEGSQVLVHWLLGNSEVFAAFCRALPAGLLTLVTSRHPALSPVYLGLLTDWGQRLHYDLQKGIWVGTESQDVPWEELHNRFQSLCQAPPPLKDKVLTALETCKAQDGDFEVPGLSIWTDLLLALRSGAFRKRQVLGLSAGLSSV
# B5: Mothers against decapentaplegic homolog 4 (Homo sapiens), Q13485 (parent)
# chain: B1 chain
# partner: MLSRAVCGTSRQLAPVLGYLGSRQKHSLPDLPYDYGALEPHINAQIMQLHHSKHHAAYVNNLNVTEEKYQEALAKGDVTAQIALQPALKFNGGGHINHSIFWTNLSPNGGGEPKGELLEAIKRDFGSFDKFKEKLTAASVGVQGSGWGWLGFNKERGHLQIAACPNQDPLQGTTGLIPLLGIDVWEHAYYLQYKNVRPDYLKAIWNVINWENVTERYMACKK
# B6: Mothers against decapentaplegic homolog 4 (Homo sapiens), Q13485 (parent)
# chain: B1 chain
# partner: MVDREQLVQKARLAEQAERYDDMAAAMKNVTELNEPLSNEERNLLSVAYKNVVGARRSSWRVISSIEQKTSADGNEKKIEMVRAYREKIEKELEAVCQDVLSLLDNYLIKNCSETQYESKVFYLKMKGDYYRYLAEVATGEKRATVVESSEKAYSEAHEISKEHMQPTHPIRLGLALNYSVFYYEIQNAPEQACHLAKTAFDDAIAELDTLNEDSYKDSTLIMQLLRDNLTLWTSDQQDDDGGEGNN
# B7: Mothers against decapentaplegic homolog 4 (Homo sapiens), Q13485 (parent)
# chain: B1 chain
# partner: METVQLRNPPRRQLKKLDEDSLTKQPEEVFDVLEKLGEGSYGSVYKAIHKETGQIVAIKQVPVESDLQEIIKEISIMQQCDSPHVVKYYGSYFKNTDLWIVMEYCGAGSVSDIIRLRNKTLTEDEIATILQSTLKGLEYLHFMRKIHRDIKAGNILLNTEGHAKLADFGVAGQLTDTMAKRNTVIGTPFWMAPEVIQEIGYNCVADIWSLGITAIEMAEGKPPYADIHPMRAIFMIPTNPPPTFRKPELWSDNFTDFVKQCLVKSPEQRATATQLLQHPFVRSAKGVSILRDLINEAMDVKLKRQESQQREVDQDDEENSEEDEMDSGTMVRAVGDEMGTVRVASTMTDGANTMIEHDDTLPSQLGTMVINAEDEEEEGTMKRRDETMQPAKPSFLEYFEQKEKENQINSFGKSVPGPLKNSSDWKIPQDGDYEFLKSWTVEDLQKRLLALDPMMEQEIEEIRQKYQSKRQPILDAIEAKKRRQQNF
# B8: Mothers against decapentaplegic homolog 4 (Homo sapiens), Q13485 (parent)
# chain: B1 chain
# partner: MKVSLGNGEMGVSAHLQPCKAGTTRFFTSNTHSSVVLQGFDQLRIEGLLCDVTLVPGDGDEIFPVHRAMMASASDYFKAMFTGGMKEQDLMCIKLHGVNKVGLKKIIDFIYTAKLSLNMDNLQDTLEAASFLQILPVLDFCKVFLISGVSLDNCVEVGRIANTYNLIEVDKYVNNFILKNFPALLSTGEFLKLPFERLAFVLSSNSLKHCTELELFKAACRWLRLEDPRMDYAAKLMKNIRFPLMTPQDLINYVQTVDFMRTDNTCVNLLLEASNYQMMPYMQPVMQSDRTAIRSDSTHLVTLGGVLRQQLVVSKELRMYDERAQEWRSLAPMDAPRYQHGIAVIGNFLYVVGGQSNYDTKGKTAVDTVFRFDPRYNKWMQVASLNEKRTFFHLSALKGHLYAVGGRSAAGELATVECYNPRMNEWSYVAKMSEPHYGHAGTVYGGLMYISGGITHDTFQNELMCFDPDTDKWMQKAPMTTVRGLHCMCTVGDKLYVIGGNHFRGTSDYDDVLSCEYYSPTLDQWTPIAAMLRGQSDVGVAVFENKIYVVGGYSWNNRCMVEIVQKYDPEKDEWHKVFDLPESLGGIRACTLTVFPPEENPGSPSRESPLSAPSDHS
# B9: Mothers against decapentaplegic homolog 4 (Homo sapiens), Q13485 (parent)
# chain: B1 chain
# partner: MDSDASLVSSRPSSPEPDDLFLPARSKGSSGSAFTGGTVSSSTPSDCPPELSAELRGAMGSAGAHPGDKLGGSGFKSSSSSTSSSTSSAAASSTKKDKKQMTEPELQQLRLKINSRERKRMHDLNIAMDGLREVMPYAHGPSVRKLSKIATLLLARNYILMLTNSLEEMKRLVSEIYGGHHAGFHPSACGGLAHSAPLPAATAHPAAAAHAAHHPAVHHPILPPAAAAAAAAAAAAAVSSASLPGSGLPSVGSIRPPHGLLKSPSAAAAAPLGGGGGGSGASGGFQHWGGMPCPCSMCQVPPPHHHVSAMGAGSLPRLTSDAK
# Variants of: B1
# Conditions: with wasf3_human WASF3, Q9UPY6
row,effect of a mutation on the interaction,Variant
1,with no effect,D351H

# Variants of: B2
# Conditions: with rubic_human RUBCN
row,effect of a mutation on the interaction,Variant
1,with no effect,D351H

# Variants of: B2
# Conditions: with rubic_human RUBCN
# Remark: another data set of the same source
row,effect of a mutation on the interaction,Variant
1,with no effect,R361H

# Variants of: B2
# Conditions: with rubic_human RUBCN
# Remark: another data set of the same source
row,effect of a mutation on the interaction,Variant
1,with no effect,R361C

# Variants of: B2
# Conditions: with rubic_human RUBCN
# Remark: another data set of the same source
row,effect of a mutation on the interaction,Variant
1,with no effect,G386D

# Variants of: B3
# Conditions: with mre11_human MRE11, P49959
row,effect of a mutation on the interaction,Variant
1,with no effect,R361C

# Variants of: B3
# Conditions: with mre11_human MRE11, P49959
# Remark: another data set of the same source
row,effect of a mutation on the interaction,Variant
1,with no effect,R361H

# Variants of: B3
# Conditions: with mre11_human MRE11, P49959
# Remark: another data set of the same source
row,effect of a mutation on the interaction,Variant
1,with no effect,D351H

# Variants of: B3
# Conditions: with mre11_human MRE11, P49959
# Remark: another data set of the same source
row,effect of a mutation on the interaction,Variant
1,with no effect,G386D

# Variants of: B4
# Conditions: with fancf_human FANCF
row,effect of a mutation on the interaction,Variant
1,with no effect,G386D

# Variants of: B5
# Conditions: with sodm_human SOD2, P04179
row,effect of a mutation on the interaction,Variant
1,with no effect,G386D

# Variants of: B5
# Conditions: with sodm_human SOD2, P04179
# Remark: another data set of the same source
row,effect of a mutation on the interaction,Variant
1,with no effect,D351H

# Variants of: B5
# Conditions: with sodm_human SOD2, P04179
# Remark: another data set of the same source
row,effect of a mutation on the interaction,Variant
1,with no effect,R361C

# Variants of: B5
# Conditions: with sodm_human SOD2, P04179
# Remark: another data set of the same source
row,effect of a mutation on the interaction,Variant
1,with no effect,R361H

# Variants of: B6
# Conditions: with 1433g_human YWHAG
row,effect of a mutation on the interaction,Variant
1,with no effect,R361C

# Variants of: B6
# Conditions: with 1433g_human YWHAG
# Remark: another data set of the same source
row,effect of a mutation on the interaction,Variant
1,with no effect,D351H

# Variants of: B7
# Conditions: with stk4_human STK4, Q13043
row,effect of a mutation on the interaction,Variant
1,with no effect,R361C

# Variants of: B7
# Conditions: with stk4_human STK4, Q13043
# Remark: another data set of the same source
row,effect of a mutation on the interaction,Variant
1,with no effect,R361H

# Variants of: B7
# Conditions: with stk4_human STK4, Q13043
# Remark: another data set of the same source
row,effect of a mutation on the interaction,Variant
1,with no effect,G386D

# Variants of: B7
# Conditions: with stk4_human STK4, Q13043
# Remark: another data set of the same source
row,effect of a mutation on the interaction,Variant
1,with no effect,D351H

# Variants of: B8
# Conditions: with klhl9_human KLHL9, Q9P2J3
row,effect of a mutation on the interaction,Variant
1,with no effect,G386D

# Variants of: B8
# Conditions: with klhl9_human KLHL9, Q9P2J3
# Remark: another data set of the same source
row,effect of a mutation on the interaction,Variant
1,increasing interaction strength,G386D

# Variants of: B9
# Conditions: with olig2_human OLIG2, Q13516
row,effect of a mutation on the interaction,Variant
1,with no effect,G386D
